Experimental data from PMC2174347 (The Journal of Cell Biology, 2000).

Target: wild-type ezrin 1-586 (UniProt P15311 1-586)
Assay: solid phase assay

binding result: binds
B1: ezrin 1-333 K63N, K64N, K253N, K254N, K262N, and K263N (domain or fragment, UniProt P15311 1-333, looked up)
chain: MPKPINVRVTTMDAELEFAIQPNTTGKQLFDQVVKTIGLREVWYFGLHYVDNKGFPTWLKLDNNVSAQEVRKENPLQFKFRAKFYPEDVAEELIQDITQKLFFLQVKEGILSDEIYCPPETAVLLGSYAVQAKFGDYNKEVHKSGYLSSERLIPQRVMDQHKLTRDQWEDRIQVWHAEHRGMLKDNAMLEYLKIAQDLEMYGINYFEIKNKKGTDLWLGVDALGLNIYEKDDKLTPKIGFPWSEIRNISFNDNNFVIKPIDNNAPDFVFYAPRLRINKRILQLCMGNHELYMRRRKPDTIEVQQMKAQAREEKHQKQLERQQLETEKKRRETV
